Measurements published in publication PMC6440998, “Tunable microsecond dynamics of an allosteric switch regulate the activity of a AAA+ disaggregation machine” (Nature Communications, 2019).

Test system: T1, Nc1ncnc2c1ncn2[C@@H]1O[C@H](COP(=O)(O)OP(=O)(O)OP(=O)(O)O)[C@@H](O)[C@H]1O
T1 construct: full length, N-domain, NBD1, M domain, NBD2; pET28b, His6 tag with TEV cleavage site; expressed in E. coli BL21(DE3) pLysS; homohexamer
Test: purified protein
Type: biochemical, Thermus thermophilus
Details: basal activity, no casein, 50 mM HEPES pH 7.8, 50 mM KCl, 10 mM MgCl2, 25 °C, Hill fit

TT ClpB (Thermus thermophilus HB8), sequence (chain, as listed by the source): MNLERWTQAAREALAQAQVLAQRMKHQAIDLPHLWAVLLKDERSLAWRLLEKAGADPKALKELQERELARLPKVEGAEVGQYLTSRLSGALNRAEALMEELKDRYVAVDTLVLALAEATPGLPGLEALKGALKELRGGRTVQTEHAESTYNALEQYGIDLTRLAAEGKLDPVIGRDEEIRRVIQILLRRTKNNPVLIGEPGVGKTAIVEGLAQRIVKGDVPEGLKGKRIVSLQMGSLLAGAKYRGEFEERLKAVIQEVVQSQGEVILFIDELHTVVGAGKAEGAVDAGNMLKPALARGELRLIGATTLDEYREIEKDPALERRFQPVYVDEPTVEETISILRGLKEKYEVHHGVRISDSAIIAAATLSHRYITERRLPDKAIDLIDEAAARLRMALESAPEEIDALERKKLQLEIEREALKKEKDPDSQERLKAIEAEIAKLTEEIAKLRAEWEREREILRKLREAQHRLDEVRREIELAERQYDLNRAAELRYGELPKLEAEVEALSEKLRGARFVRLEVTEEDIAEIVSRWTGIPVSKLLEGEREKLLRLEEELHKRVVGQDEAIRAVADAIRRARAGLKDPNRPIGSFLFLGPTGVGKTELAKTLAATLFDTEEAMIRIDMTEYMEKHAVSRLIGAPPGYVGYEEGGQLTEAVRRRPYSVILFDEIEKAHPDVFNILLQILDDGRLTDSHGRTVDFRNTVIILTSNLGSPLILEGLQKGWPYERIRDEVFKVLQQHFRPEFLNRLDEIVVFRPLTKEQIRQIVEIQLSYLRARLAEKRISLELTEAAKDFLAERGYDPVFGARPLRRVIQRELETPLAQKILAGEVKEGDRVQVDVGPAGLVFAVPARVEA

For TT ClpB (Thermus thermophilus HB8), the K0.5 was 390 ± 15 µM and the kcat was 0.0533 ± 0.00167 s⁻¹.
